In PMC11401910, “Dual client binding sites in the ATP-independent chaperone SurA” (Nature Communications, 2024):
Values belong to the binder of their own block, whether it stands above or below them.

Experiments:
Conditions in all cases: both partners purified
SurA-WT [1] = target: T1, SurA-WT (E. coli, UniProt P0ABZ6 21-428); test: NMR titration; methyl-TROSY (2D 1H-13C SOFAST-HMQC) of Ile/Met 13CH3-labelled SurA-WT, single point: 5 µM SurA and 5 µM unfolded OMP; 5 mM EDTA, 20 mM Tris-HCl, pH 8.0, 0.8 M urea, 25 °C; peak intensities and CSPs
T1 construct: no cleavage step is described; For NMR the protein was made in D2O medium with 13C labels on Ile delta1 and Met epsilon methyls; also called wild-type SurA; apo-SurA; source: E. coli BL21(DE3), purified (HisTrap, dialysis)
T1 sequence (looked up): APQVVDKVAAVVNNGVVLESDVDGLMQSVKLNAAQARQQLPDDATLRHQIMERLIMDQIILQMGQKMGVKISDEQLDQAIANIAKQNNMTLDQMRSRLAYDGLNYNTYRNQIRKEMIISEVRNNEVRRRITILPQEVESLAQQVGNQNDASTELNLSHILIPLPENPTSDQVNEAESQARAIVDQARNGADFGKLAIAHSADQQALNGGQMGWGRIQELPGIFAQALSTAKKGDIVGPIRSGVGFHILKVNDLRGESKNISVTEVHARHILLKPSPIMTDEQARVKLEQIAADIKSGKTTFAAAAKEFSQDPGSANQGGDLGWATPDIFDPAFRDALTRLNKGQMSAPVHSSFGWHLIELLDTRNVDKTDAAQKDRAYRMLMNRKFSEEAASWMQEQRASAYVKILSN

SurA-WT [2] = target: T1, SurA-WT; test: FRET or BRET; single-molecule FRET (pulsed interleaved excitation) between donor and acceptor on the two termini of unfolded OmpX (~75 pM) with 30 μM SurA-WT or SurA-core; 20 mM Tris-HCl, 0.1 M urea, 0.02% Tween-20, 1 mM aged Trolox, pH 8.0, ~21 °C; binding is read from the change of the client's own FRET distribution
SurA-core [3] = target: T2, SurA-core (E. coli, UniProt P0ABZ6 21-428, deleting codons for residues 172–389); test: as above
T2 construct: gene numbering including the signal peptide; no cleavage step described; also called core domain; construct lacking both PPIase domains; source: E. coli BL21(DE3), purified (HisTrap, dialysis)
T2 sequence (looked up): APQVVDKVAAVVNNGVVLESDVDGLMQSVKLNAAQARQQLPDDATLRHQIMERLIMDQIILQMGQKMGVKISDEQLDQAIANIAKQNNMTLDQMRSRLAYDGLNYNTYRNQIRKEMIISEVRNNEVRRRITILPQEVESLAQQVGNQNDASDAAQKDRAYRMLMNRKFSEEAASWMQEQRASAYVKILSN

SurA-WT [4] = target: T1, SurA-WT; test: MST; 100 nM Alexa Fluor 488-labelled tBamA or OmpX, SurA-WT or SurA-core in serial dilution (40 μM–1.2 nM for tBamA, 12.5 μM–3 nM for OmpX); 0.8 M urea, 20 mM Tris-HCl, pH 8.0, 25 °C; fitted to a Hill equation, apparent Kd
SurA-core [5] = target: T2, SurA-core; test: as above

- binding result (SurA-WT [1]): binds
B1: OmpF (natural protein, UniProt P02931 23-362, looked up)
chain: AEIYNKDGNKVDLYGKAVGLHYFSKGNGENSYGGNGDMTYARLGFKGETQINSDLTGYGQWEYNFQGNNSEGADAQTGNKTRLAFAGLKYADVGSFDYGRNYGVVYDALGYTDMLPEFGGDTAYSDDFFVGRVGGVATYRNSNFFGLVDGLNFAVQYLGKNERDTARRSNGDGVGGSISYEYEGFGIVGAYGAADRTNLQEAQPLGNGKKAEQWATGLKYDANNIYLAANYGETRNATPITNKFTNTSGFANKTQDVLLVAQYQFDFGLRPSIAYTKSKAKDVEGIGDVDLVNYFEVGATYYFNKNMSTYVDYIINQIDSDNKLGVGSDDTVAVGIVYQF
notes: Unfolded client (0.8 M urea); source: E. coli BL21[DE3], inclusion bodies, purified in 6 M Gdn-HCl (Superdex 75)

- binding result (SurA-WT [1]): binds
B2: OmpX (natural protein, UniProt P0A917 24-171, looked up)
chain: ATSTVTGGYAQSDAQGQMNKMGGFNLKYRYEEDNSPLGVIGSFTYTEKSRTASSGDYNKNQYYGITAGPAYRINDWASIYGVVGVGYGKFQTTEYPTYKHDTSDYGFSYGAGLQFNPMENVALDFSYEQSRIRSVDVGTWIAGVGYRF
notes: Unfolded client in the assay (0.8 M urea); Cloned at the NdeI site, so a start Met probably precedes residue 24; also called unfolded OmpX; full-length OmpX; source: E. coli BL21[DE3], inclusion bodies, purified in 6 M Gdn-HCl (Superdex 75)

- binding result (SurA-WT [1]): binds
B3: tOmpA (domain or fragment, UniProt P0A910 22-192, looked up)
chain: APKDNTWYTGAKLGWSQYHDTGFINNNGPTHENQLGAGAFGGYQVNPYVGFEMGYDWLGRMPYKGSVENGAYKAQGVQLTAKLGYPITDDLDIYTRLGGMVWRADTKSNVYGKNHDTGVSPVFAGGVEYAITPEIATRLEYQWTNNIGDAHTIGTRPDNGMLSLGVSYRFG
notes: as for B1

- binding result (SurA-WT [2]): binds
- binding result (SurA-core [3]): binds
B4: Cys-OmpX-Cys labelled with Alexa Fluor 488 and ATTO 565 (natural protein)
chain: MGSCATSTVTGGYAQSDAQGQMNKMGGFNLKYRYEEDNSPLGVIGSFTYTEKSRTASSGDYNKNQYYGITAGPAYRINDWASIYGVVGVGYGKFQTTEYPTYKHDTSDYGFSYGAGLQFNPMENVALDFSYEQSRIRSVDVGTWIAGVGYRFC
modifications: Alexa Fluor 488 and ATTO 565 via maleimide on the N- and C-terminal Cys residues (stochastic labelling)
notes: additional C-terminal Cys residue; Unfolded client in 0.1 M urea; also called OmpX (smFRET); FRET-labelled OmpX; source: E. coli BL21[DE3], inclusion bodies, purified; labelled by maleimide chemistry

- binding result (SurA-WT [4]): binds
- binding result (SurA-core [5]): binds
B5: Cys-OmpX labelled with Alexa Fluor 488 (natural protein)
chain: MGSCATSTVTGGYAQSDAQGQMNKMGGFNLKYRYEEDNSPLGVIGSFTYTEKSRTASSGDYNKNQYYGITAGPAYRINDWASIYGVVGVGYGKFQTTEYPTYKHDTSDYGFSYGAGLQFNPMENVALDFSYEQSRIRSVDVGTWIAGVGYRF
modifications: Alexa Fluor 488 on the N-terminal Cys
notes: lacks the C-terminal Cys of Cys-OmpX-Cys; The MST methods say only 'Alexa Fluor 488-labelled OmpX'; also called Alexa Fluor 488-labelled OmpX; OmpX (MST); source: E. coli BL21[DE3], inclusion bodies, purified; labelled by maleimide chemistry
